Assay results published in US20240270874A1 (JIANGSU HENGRUI PHARMACEUTICALS, published 2024).

T1: human KLB on CHOK1-hKLB cells (human, UniProt Q86Z14 1-1044)
T1 construct: whole, on cells; also called human KLB antigen; β-Klotho
T1 sequence (looked up): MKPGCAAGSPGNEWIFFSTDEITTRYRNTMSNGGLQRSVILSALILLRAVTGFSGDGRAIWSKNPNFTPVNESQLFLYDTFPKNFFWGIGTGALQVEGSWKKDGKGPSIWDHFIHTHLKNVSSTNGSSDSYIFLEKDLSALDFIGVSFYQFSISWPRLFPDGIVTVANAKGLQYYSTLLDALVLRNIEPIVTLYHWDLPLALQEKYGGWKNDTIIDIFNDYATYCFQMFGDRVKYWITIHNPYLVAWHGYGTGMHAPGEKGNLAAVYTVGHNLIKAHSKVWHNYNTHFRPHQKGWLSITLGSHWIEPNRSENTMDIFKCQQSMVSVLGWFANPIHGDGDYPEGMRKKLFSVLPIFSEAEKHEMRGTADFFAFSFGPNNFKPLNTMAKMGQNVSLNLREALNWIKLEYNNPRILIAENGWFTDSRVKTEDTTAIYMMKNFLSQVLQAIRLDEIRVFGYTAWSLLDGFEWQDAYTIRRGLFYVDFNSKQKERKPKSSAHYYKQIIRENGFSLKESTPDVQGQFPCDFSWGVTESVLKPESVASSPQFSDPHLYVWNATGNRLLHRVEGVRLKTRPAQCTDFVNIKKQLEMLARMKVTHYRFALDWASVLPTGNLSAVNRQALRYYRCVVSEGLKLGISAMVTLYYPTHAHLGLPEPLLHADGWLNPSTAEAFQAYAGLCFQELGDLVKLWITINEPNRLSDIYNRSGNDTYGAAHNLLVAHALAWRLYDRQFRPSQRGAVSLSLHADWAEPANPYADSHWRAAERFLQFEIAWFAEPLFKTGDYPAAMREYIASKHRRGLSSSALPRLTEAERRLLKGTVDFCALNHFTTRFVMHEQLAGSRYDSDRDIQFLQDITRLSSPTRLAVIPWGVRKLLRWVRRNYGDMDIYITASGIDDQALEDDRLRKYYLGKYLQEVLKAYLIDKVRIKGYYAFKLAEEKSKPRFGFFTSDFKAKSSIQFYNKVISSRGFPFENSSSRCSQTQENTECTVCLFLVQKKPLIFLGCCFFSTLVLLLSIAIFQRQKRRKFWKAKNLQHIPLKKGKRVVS

B1: hAb99-18 (antibody, human IgG1, kappa, L234A L235A, V domains shown)
VH: EVQLVQSGAEVKKPGASVKVSCKASGYTFTNYGINWVRQAPGQGLEWMGYIYIGQGDIEYNAKFKGRVTITSDTSASTAYMELSSLRSEDTAVYYCARGRGLGHFDVWGQGTTVTVSS
VL: DIQMTQSPSSLSASVGDRVTITCRASKSISKFLAWFQQKPGKTNKLLIYSGSTLQSGVPSRFSGSGSGTDFTLTISSLQPEDFATYYCQQHNEYPWTFGGGTKVEIKR
notes: humanized mAb-99: hAb99VH2-QG + hAb99VL2; human IgG1 (L234A, L235A) / kappa constant regions
B2: hAb99-19 (antibody, human IgG1, kappa, L234A L235A, V domains shown)
VH: EVQLVQSGAEVKKPGASVKVSCKTSGYTFTNYGINWVRQAPGQGLEWMGYIYIGNVDIEYNAKFKGRVTITSDTSASTAYMELSSLRSEDTAVYFCARGRGLGHFDVWGQGTTVTVSS
VL: DIQMTQSPSSLSASVGDRVTITCRASKSISKFLAWFQQKPGKTNKLLIYSGSTLQSGVPSRFSGSGSGTDFTLTISSLQPEDFATYYCQQHNEYPWTFGGGTKVEIKR
notes: humanized mAb-99: hAb99VH3-NV + hAb99VL2; human IgG1 (L234A, L235A) / kappa constant regions
B3: hAb99-20 (antibody, human IgG1, kappa, L234A L235A, V domains shown)
VH: EVQLVQSGAEVKKPGASVKVSCKTSGYTFTNYGINWVRQAPGQGLEWMGYIYIGNLDIEYNAKFKGRVTITSDTSASTAYMELSSLRSEDTAVYFCARGRGLGHFDVWGQGTTVTVSS
VL: DIQMTQSPSSLSASVGDRVTITCRASKSISKFLAWFQQKPGKTNKLLIYSGSTLQSGVPSRFSGSGSGTDFTLTISSLQPEDFATYYCQQHNEYPWTFGGGTKVEIKR
notes: humanized mAb-99: hAb99VH3-NL + hAb99VL2; human IgG1 (L234A, L235A) / kappa constant regions
B4: hAb99-21 (antibody, human IgG1, kappa, L234A L235A, V domains shown)
VH: EVQLVQSGAEVKKPGASVKVSCKTSGYTFTNYGINWVRQAPGQGLEWMGYIYIGQGDIEYNAKFKGRVTITSDTSASTAYMELSSLRSEDTAVYFCARGRGLGHFDVWGQGTTVTVSS
VL: DIQMTQSPSSLSASVGDRVTITCRASKSISKFLAWFQQKPGKTNKLLIYSGSTLQSGVPSRFSGSGSGTDFTLTISSLQPEDFATYYCQQHNEYPWTFGGGTKVEIKR
notes: humanized mAb-99: hAb99VH3-QG + hAb99VL2; human IgG1 (L234A, L235A) / kappa constant regions
B5: hAb18-2 (antibody, human IgG1, kappa, L234A L235A, V domains shown)
VH: EVQLVQSGAEVKKPGASVKVSCKASGYTFTDYAMHWVRQAPGQRLEWMGVISTYSGTTNYNQNFKGRVTITVDKSASTAYMELSSLRSEDTAVYYCARSGPLDYWGQGTTVTVSS
VL: ENVLTQSPDFQSVTPKEKVTITCRASSSVSSSYLHWYQQKPDQSPKLWIYSTSNLASGVPSRFSGSGSGTDYTLTINSLEAEDAATYYCQQYSGYPLTFGQGTKLEIKR
notes: humanized mAb-18: hAb18VH1 + hAb18VL2; human IgG1 (L234A, L235A) / kappa constant regions
B6: hAb18-1 (antibody, human IgG1, kappa, L234A L235A, V domains shown)
VH: EVQLVQSGAEVKKPGASVKVSCKASGYTFTDYAMHWVRQAPGQRLEWMGVISTYSGTTNYNQNFKGRVTITVDKSASTAYMELSSLRSEDTAVYYCARSGPLDYWGQGTTVTVSS
VL: EIVLTQSPDFQSVTPKEKVTITCRASSSVSSSYLHWYQQKPDQSPKLWIYSTSNLASGVPSRFSGSGSGTDFTLTINSLEAEDAATYYCQQYSGYPLTFGQGTKLEIKR
notes: humanized mAb-18: hAb18VH1 + hAb18VL1; human IgG1 (L234A, L235A) / kappa constant regions
B7: hAb18-3 (antibody, human IgG1, kappa, L234A L235A, V domains shown)
VH: EVQLVQSGAEVKKPGASVKVSCKGSGYTFTDYAMHWVRQAPGQRLEWMGVISTYSGTTNYNQNFKGRVTVTVDKSASTAYMELSSLRSEDTAVYYCARSGPLDYWGQGTTVTVSS
VL: EIVLTQSPDFQSVTPKEKVTITCRASSSVSSSYLHWYQQKPDQSPKLWIYSTSNLASGVPSRFSGSGSGTDFTLTINSLEAEDAATYYCQQYSGYPLTFGQGTKLEIKR
notes: humanized mAb-18: hAb18VH2 + hAb18VL1; human IgG1 (L234A, L235A) / kappa constant regions
B8: hAb18-4 (antibody, human IgG1, kappa, L234A L235A, V domains shown)
VH: EVQLVQSGAEVKKPGASVKVSCKGSGYTFTDYAMHWVRQAPGQRLEWMGVISTYSGTTNYNQNFKGRVTVTVDKSASTAYMELSSLRSEDTAVYYCARSGPLDYWGQGTTVTVSS
VL: ENVLTQSPDFQSVTPKEKVTITCRASSSVSSSYLHWYQQKPDQSPKLWIYSTSNLASGVPSRFSGSGSGTDYTLTINSLEAEDAATYYCQQYSGYPLTFGQGTKLEIKR
notes: humanized mAb-18: hAb18VH2 + hAb18VL2; human IgG1 (L234A, L235A) / kappa constant regions

What follows are binders tested against T1, human KLB on CHOK1-hKLB cells (assay: flow cytometry on CHOK1-hKLB cells).
From the text: The above heavy chain variable regions were fused to the heavy chain constant region (set forth in SEQ ID NO: 22) and the light chain variable regions were fused to the light chain constant region (set forth in SEQ ID NO: 23) to construct anti-KLB antibodies, and the binding activity of the obtained antibodies for CHOK1-hKLB was detected (see Test Example 2 of the present disclosure for the experimental method).
The binding ability of the antibodies for CHOK1 cell strains CHOK1-hKLB and CHOK1-cynoKLB overexpressing human KLB and monkey KLB (see Example 1 for specific preparation procedure), respectively, was detected by flow cytometry. The specific procedure was as follows: the above cells were cultured in 10% FBS-containing IMDM medium and incubated in an incubator at 37° C. and 5% CO₂ for 2 days. The cells were then added to a cell plate at 1×10⁵ cells per well, centrifuged at 300 g for 5 min, and then washed once with 1% BSA. The antibody diluted in gradient was added to the cell plate at 100 μL per well, and the mixture was incubated at 4° C. for 1 h and washed once with 1% BSA. The diluted (1:400) APC-goat anti-human IgG Fc fluorescent secondary antibody was added at 100 μL per well, and the resulting mixture was incubated at 4° C. for 1 h. The plate was washed three times with 1% BSA, PBS was added at 100 μL per well, and the plate was read.

B1 and B2 are within 1.5-fold of each other in EC50: 0.43 nM for the first, 0.38 nM for the second.

B3 and B4 are within 1.5-fold of each other in EC50: 0.41 nM for the first, 0.45 nM for the second.

B5 and B6 are within 1.5-fold of each other in EC50: 1.58 nM for the first, 1.34 nM for the second.

B7 and B8 are within 1.5-fold of each other in EC50: 1.9 nM for the first, 2 nM for the second.
